From the supplement of paper PMC5998384

Key:
HeLa Kyoto [1] = experiment: solubility in G1/S (NP-40 vs SDS abundance) (log2 ratio); higher = more soluble; conditions: cell cycle stage: G1/S
HeLa Kyoto [2] = experiment: melting temperature (median over replicates), in situ; higher = more thermally stable
HeLa Kyoto [3] = experiment: solubility change mitosis vs G1/S (difference of NP-40 vs SDS log2 ratios) (log2 ratio difference); higher = more soluble in mitosis
HeLa Kyoto [4] = experiment: thermal stability score vs G1/S (z-score of summed log2 fold changes over temperatures); higher = more thermally stable than in G1/S
[5] = cell cycle stage: early G1 (4.5 h after nocodazole release)
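Throughout, for melting temperature (median over replicates), in situ: HeLa Kyoto cells synchronized by double thymidine or nocodazole block, proteins quantified by TMT10plex mass spectrometry, three independent biological replicates.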
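Throughout, for solubility change mitosis vs G1/S (difference of NP-40 vs SDS log2 ratios): synchronized HeLa Kyoto cells (double thymidine block for G1/S, nocodazole release for mitosis), protein amounts in NP-40 versus SDS lysates quantified by mass spectrometry, three biological replicates.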
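Throughout, for solubility in G1/S (NP-40 vs SDS abundance): HeLa Kyoto cells arrested at G1/S by double thymidine block, proteins quantified by TMT10plex mass spectrometry in mild NP-40 versus SDS extracts, three biological replicates.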
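Throughout, for thermal stability score vs G1/S (z-score of summed log2 fold changes over temperatures): synchronized HeLa Kyoto cells, proteins quantified by TMT10plex mass spectrometry, three biological replicates, mitosis taken 0.5 h after nocodazole release, G1/S directly after double thymidine block.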

Chain of THOP1 (chain, as listed by the source): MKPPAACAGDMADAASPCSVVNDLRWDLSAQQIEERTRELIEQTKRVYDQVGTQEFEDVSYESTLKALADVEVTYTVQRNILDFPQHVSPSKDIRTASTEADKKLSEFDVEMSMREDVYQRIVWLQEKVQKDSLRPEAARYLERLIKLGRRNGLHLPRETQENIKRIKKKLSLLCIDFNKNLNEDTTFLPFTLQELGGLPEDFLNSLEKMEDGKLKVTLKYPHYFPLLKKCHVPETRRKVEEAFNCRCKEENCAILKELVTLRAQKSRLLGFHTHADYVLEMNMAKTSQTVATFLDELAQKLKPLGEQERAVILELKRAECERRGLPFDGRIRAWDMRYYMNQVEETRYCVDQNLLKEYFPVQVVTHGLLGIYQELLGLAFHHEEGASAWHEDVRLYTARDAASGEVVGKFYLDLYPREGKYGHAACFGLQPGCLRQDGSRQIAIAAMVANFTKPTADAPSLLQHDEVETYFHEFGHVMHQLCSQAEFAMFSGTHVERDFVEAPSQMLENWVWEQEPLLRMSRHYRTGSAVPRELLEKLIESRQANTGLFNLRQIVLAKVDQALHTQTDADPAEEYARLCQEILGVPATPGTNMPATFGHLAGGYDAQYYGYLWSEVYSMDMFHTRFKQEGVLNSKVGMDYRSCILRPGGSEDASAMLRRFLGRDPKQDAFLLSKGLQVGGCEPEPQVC
Chain of OCRL (chain, as listed by the source): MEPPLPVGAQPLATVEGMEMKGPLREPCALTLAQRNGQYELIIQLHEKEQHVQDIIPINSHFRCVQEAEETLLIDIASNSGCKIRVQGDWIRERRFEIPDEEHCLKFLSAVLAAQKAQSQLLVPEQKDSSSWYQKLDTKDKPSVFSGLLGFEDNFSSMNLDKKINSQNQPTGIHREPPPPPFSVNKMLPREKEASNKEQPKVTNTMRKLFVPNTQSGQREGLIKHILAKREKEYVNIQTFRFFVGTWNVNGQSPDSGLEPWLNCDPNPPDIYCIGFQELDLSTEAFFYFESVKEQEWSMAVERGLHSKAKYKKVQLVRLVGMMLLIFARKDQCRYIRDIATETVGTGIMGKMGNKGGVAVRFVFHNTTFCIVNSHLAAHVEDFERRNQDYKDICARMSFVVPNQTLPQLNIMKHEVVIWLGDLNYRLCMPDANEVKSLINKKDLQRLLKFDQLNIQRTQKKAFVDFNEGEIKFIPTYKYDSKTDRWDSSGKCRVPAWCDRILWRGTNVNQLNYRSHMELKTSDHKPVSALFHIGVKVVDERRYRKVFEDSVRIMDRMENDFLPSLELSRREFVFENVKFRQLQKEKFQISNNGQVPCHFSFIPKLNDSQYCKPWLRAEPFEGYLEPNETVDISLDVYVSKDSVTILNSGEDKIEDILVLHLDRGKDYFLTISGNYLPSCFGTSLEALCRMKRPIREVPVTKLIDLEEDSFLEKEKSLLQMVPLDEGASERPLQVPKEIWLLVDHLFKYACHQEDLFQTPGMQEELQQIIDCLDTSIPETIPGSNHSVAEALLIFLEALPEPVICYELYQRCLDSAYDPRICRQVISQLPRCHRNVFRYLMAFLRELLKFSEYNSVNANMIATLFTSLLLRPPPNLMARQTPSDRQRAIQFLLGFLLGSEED

| Substance | solubility in G1/S (log2) (HeLa Kyoto [1]) | melting temperature (HeLa Kyoto [2]; cell cycle stage: G1/S) | melting temperature (HeLa Kyoto [2]; cell cycle stage: mitosis) | solubility change mitosis (log2) (HeLa Kyoto [3]) | thermal stability score (HeLa Kyoto [4]; [5]) | thermal stability score (HeLa Kyoto [4]; cell cycle stage: mitosis) |
| --- | --- | --- | --- | --- | --- | --- |
| MADGPRCKRRKQANPRRNNVTNYNTVVETNSDSDDEDKLHIVEEESVTDAADCEGVPEDDLPTDQTVLPGRSSEREGNAKNCWEDDRKEGQEILGPEAQADEAGCTVKDDECESDAENEQNHDPNVEEFLQQQDTAVIFPEAPEEDQRQGTPEASGHDENGTPDAFSQLLTCPYCDRGYKRFTSLKEHIKYRHEKNEDNFSCSLCSYTFAYRTQLERHMTSHKSGRDQRHVTQSGCNRKFKCTECGKAFKYKHHLKEHLRIHSGEKPYECPNCKKRFSHSGSYSSHISSKKCISLIPVNGRPRTGLKTSQCSSPSLSASPGSPTRPQIRQKIENKPLQEQLSVNQIKTEPVDYEFKPIVVASGINCSTPLQNGVFTGGGPLQATSSPQGMVQAVVLPTVGLVSPISINLSDIQNVLKVAVDGNVIRQVLENNQANLASKEQETINASPIQQGGHSVISAISLPLVDQDGTTKIIINYSLEQPSQLQVVPQNLKKENPVATNSCKSEKLPEDLTVKSEKDKSFEGGVNDSTCLLCDDCPGDINALPELKHYDLKQPTQPPPLPAAEAEKPESSVSSATGDGNLSPSQPPLKNLLSLLKAYYALNAQPSAEELSKIADSVNLPLDVVKKWFEKMQAGQISVQSSEPSSPEPGKVNIPAKNNDQPQSANANEPQDSTVNLQSPLKMTNSPVLPVGSTTNGSRSSTPSPSPLNLSSSRNTQGYLYTAEGAQEEPQVEPLDLSLPKQQGELLERSTITSVYQNSVYSVQEEPLNLSCAKKEPQKDSCVTDSEPVVNVIPPSANPINIAIPTVTAQLPTIVAIADQNSVPCLRALAANKQTILIPQVAYTYSTTVSPAVQEPPLKVIQPNGNQDERQDTSSEGVSNVEDQNDSDSTPPKKKMRKTENGMYACDLCDKIFQKSSSLLRHKYEHTGKRPHECGICKKAFKHKHHLIEHMRLHSGEKPYQCDKCGKRFSHSGSYSQHMNHRYSYCKREAEERDSTEQEEAGPEILSNEHVGARASPSQGDSDERESLTREEDEDSEKEEEEEDKEMEELQEEKECEKPQGDEEEEEEEEEVEEEEVEEAENEGEEAKTEGLMKDDRAESQASSLGQKVGESSEQVSEEKTNEA [ZEB1] | -0.154 | 52.8 °C | 53.9 °C | -0.0271 | -0.796 | 2.75 |
| MWSGRKLGSSGGWFLRVLGPGGCNTKAARPLISSAVYVKNQLSGTLQIKPGVFNEYRTIWFKSYRTIFSCLNRIKSFRYPWARLYSTSQTTVDSGEVKTFLALAHKWWDEQGVYAPLHSMNDLRVPFIRDNLLKTIPNHQPGKPLLGMKILDVGCGGGLLTEPLGRLGASVIGIDPVDENIKTAQCHKSFDPVLDKRIEYRVCSLEEIVEETAETFDAVVASEVVEHVIDLETFLQCCCQVLKPGGSLFITTINKTQLSYALGIVFSEQIASIVPKGTHTWEKFVSPETLESILESNGLSVQTVVGMLYNPFSGYWHWSENTSLNYAAYAVKSRVQEHPASAEFVLKGETEELQANACTNPAVHEKLKK [COQ3] | 0.345 | 55.3 °C | 56.3 °C | -0.0133 | -0.812 | -0.988 |
| MLLSLVLHTYSMRYLLPSVVLLGTAPTYVLAWGVWRLLSAFLPARFYQALDDRLYCVYQSMVLFFFENYTGVQILLYGDLPKNKENIIYLANHQSTVDWIVADILAIRQNALGHVRYVLKEGLKWLPLYGCYFAQHGGIYVKRSAKFNEKEMRNKLQSYVDAGTPMYLVIFPEGTRYNPEQTKVLSASQAFAAQRGLAVLKHVLTPRIKATHVAFDCMKNYLDAIYDVTVVYEGKDDGGQRRESPTMTEFLCKECPKIHIHIDRIDKKDVPEEQEHMRRWLHERFEIKDKMLIEFYESPDPERRKRFPGKSVNSKLSIKKTLPSMLILSGLTAGMLMTDAGRKLYVNTWIYGTLLGCLWVTIKA [AGPAT5] | -0.125 | 52.1 °C | 52.6 °C | -0.0679 | 0.0279 | -1.01 |
| MDSNTAPLGPSCPQPPPAPQPQARSRLNATASLEQERSERPRAPGPQAGPGPGVRDAAAPAEPQAQHTRSRERADGTGPTKGDMEIPFEEVLERAKAGDPKAQTEVGKHYLQLAGDTDEELNSCTAVDWLVLAAKQGRREAVKLLRRCLADRRGITSENEREVRQLSSETDLERAVRKAALVMYWKLNPKKKKQVAVAELLENVGQVNEHDGGAQPGPVPKSLQKQRRMLERLVSSESKNYIALDDFVEITKKYAKGVIPSSLFLQDDEDDDELAGKSPEDLPLRLKVVKYPLHAIMEIKEYLIDMASRAGMHWLSTIIPTHHINALIFFFIVSNLTIDFFAFFIPLVIFYLSFISMVICTLKVFQDSKAWENFRTLTDLLLRFEPNLDVEQAEVNFGWNHLEPYAHFLLSVFFVIFSFPIASKDCIPCSELAVITGFFTVTSYLSLSTHAEPYTRRALATEVTAGLLSLLPSMPLNWPYLKVLGQTFITVPVGHLVVLNVSVPCLLYVYLLYLFFRMAQLRNFKGTYCYLVPYLVCFMWCELSVVILLESTGLGLLRASIGYFLFLFALPILVAGLALVGVLQFARWFTSLELTKIAVTVAVCSVPLLLRWWTKASFSVVGMVKSLTRSSMVKLILVWLTAIVLFCWFYVYRSEGMKVYNSTLTWQQYGALCGPRAWKETNMARTQILCSHLEGHRVTWTGRFKYVRVTDIDNSAESAINMLPFFIGDWMRCLYGEAYPACSPGNTSTAEEELCRLKLLAKHPCHIKKFDRYKFEITVGMPFSSGADGSRSREEDDVTKDIVLRASSEFKSVLLSLRQGSLIEFSTILEGRLGSKWPVFELKAISCLNCMAQLSPTRRHVKIEHDWRSTVHGAVKFAFDFFFFPFLSAA [WFS1] | 0.109 | 51.7 °C | 52.2 °C | -0.183 | 2.34 | 3.05 |
| THOP1 | 0.0611 | 56.3 °C | 56.1 °C | -0.109 | -1.55 | -2.28 |
| OCRL | -0.137 | 51.4 °C | 51.8 °C | -0.122 | -0.419 | -0.472 |
| ITPR2 | -0.52 | 49.6 °C | 50.4 °C | 0.131 | -0.335 | 0.355 |
| MPPSGPRGTLLLLPLLLLLLLRAVLAVPLERGAPNKEETPATESPDTGLYYHRYLQEVIDVLETDGHFREKLQAANAEDIKSGKLSRELDFVSHHVRTKLDELKRQEVSRLRMLLKAKMDAEQDPNVQVDHLNLLKQFEHLDPQNQHTFEARDLELLIQTATRDLAQYDAAHHEEFKRYEMLKEHERRRYLESLGEEQRKEAERKLEEQQRRHREHPKVNVPGSQAQLKEVWEELDGLDPNRFNPKTFFILHDINSDGVLDEQELEALFTKELEKVYDPKNEEDDMREMEEERLRMREHVMKNVDTNQDRLVTLEEFLASTQRKEFGDTGEGWETVEMHPAYTEEELRRFEEELAAREAELNAKAQRLSQETEALGRSQGRLEAQKRELQQAVLHMEQRKQQQQQQQGHKAPAAHPEGQLKFHPDTDDVPVPAPAGDQKEVDTSEKKLLERLPEVEVPQHL [NUCB1] | 0.717 | 54.5 °C | 54.7 °C | 0.0913 | -3.73 | -4.26 |
| MVHCSCVLFRKYGNFIDKLRLFTRGGSGGMGYPRLGGEGGKGGDVWVVAQNRMTLKQLKDRYPRKRFVAGVGANSKISALKGSKGKDCEIPVPVGISVTDENGKIIGELNKENDRILVAQGGLGGKLLTNFLPLKGQKRIIHLDLKLIADVGLVGFPNAGKSSLLSCVSHAKPAIADYAFTTLKPELGKIMYSDFKQISVADLPGLIEGAHMNKGMGHKFLKHIERTRQLLFVVDISGFQLSSHTQYRTAFETIILLTKELELYKEELQTKPALLAVNKMDLPDAQDKFHELMSQLQNPKDFLHLFEKNMIPERTVEFQHIIPISAVTGEGIEELKNCIRKSLDEQANQENDALHKKQLLNLWISDTMSSTEPPSKHAVTTSKMDII [GTPBP10] | 0.217 | 49.4 °C | 50.8 °C | 0.0276 | -0.944 | 0.176 |
| MERSGPSEVTGSDASGPDPQLAVTMGFTGFGKKARTFDLEAMFEQTRRTAVERSRKTLEAREKEEEMNREKELRRQNEDIEPTSSRSNVVRDCSKSSSRDTSSSESEQSSDSSDDELIGPPLPPKMVGKPVNFMEEDILGPLPPPLNEEEEEAEEEEEEEEEEENPVHKIPDSHEITLKHGTKTVSALGLDPSGARLVTGGYDYDVKFWDFAGMDASFKAFRSLQPCECHQIKSLQYSNTGDMILVVSGSSQAKVIDRDGFEVMECIKGDQYIVDMANTKGHTAMLHTGSWHPKIKGEFMTCSNDATVRTWEVENPKKQKSVFKPRTMQGKKVIPTTCTYSRDGNLIAAACQNGSIQIWDRNLTVHPKFHYKQAHDSGTDTSCVTFSYDGNVLASRGGDDSLKLWDIRQFNKPLFSASGLPTMFPMTDCCFSPDDKLIVTGTSIQRGCGSGKLVFFERRTFQRVYEIDITDASVVRCLWHPKLNQIMVGTGNGLAKVYYDPNKSQRGAKLCVVKTQRKAKQAETLTQDYIITPHALPMFREPRQRSTRKQLEKDRLDPLKSHKPEPPVAGPGRGGRVGTHGGTLSSYIVKNIALDKTDDSNPREAILRHAKAAEDSPYWVSPAYSKTQPKTMFAQVESDDEEAKNEPEWKKRKI [WDR70] | -0.0649 | 53.3 °C | 53.2 °C | -0.0897 | -0.26 | -0.746 |
| MFSLSSTVQPQVTVPLSHLINAFHTPKNTSVSLSGVSVSQNQHRDVVPEHEAPSSECMFSDFLTKLNIVSIGKGKIFEGYRSMFMEPAKRMKKSLDTTDNWHIRPEPFSLSIPPSLNLRDLGLSELKIGQIDQLVENLLPGFCKGKNISSHWHTSHVSAQSFFENKYGNLDIFSTLRSSCLYRHHSRALQSICSDLQYWPVFIQSRGFKTLKSRTRRLQSTSERLAETQNIAPSFVKGFLLRDRGSDVESLDKLMKTKNIPEAHQDAFKTGFAEGFLKAQALTQKTNDSLRRTRLILFVLLLFGIYGLLKNPFLSVRFRTTTGLDSAVDPVQMKNVTFEHVKGVEEAKQELQEVVEFLKNPQKFTILGGKLPKGILLVGPPGTGKTLLARAVAGEADVPFYYASGSEFDEMFVGVGASRIRNLFREAKANAPCVIFIDELDSVGGKRIESPMHPYSRQTINQLLAEMDGFKPNEGVIIIGATNFPEALDNALIRPGRFDMQVTVPRPDVKGRTEILKWYLNKIKFDQSVDPEIIARGTVGFSGAELENLVNQAALKAAVDGKEMVTMKELEFSKDKILMGPERRSVEIDNKNKTITAYHESGHAIIAYYTKDAMPINKATIMPRGPTLGHVSLLPENDRWNETRAQLLAQMDVSMGGRVAEELIFGTDHITTGASSDFDNATKIAKRMVTKFGMSEKLGVMTYSDTGKLSPETQSAIEQEIRILLRDSYERAKHILKTHAKEHKNLAEALLTYETLDAKEIQIVLEGKKLEVR [YME1L1] | 0.0482 | 50.9 °C | 50.8 °C | -0.0396 | 2.02 | 1.49 |
